This passage reports binding result and EC50 results from patent US20240076360A1 (University of Pennsylvania, published 2024).

One assay has as its target T1, mouse C5 (mouse, UniProt P06684 19-1680, limits assumed).
T1 construct: also called recombinant mouse C5 protein
The assay can be described thus: ELISA, wells coated with recombinant C5 (3 ug/ml), serially diluted antibody, detection with HRP anti-IgG4 Fc, OD450. The procedure:
(§1) ELISA wells were coated with recombinant C5 protein of relevant species (3 μg/ml in coating buffer, 100 μl/well, 4° C. overnight). […] Sheep RBC lysis assay was performed as described in Example 3, using 5-20% cynomolgus monkey serum.
(ELISA stands for enzyme-linked immunosorbent assay.)

A further assay has as its target T2, rabbit C5 (rabbit, UniProt G1SPF9 19-673; G1SPF9 678-1675).
T2 construct: also called recombinant rabbit C5 protein
Described as above. The procedure: as §1

The next assay concerns the target T3, rat C5 (rat, UniProt P08650 19-1681, limits assumed).
T3 construct: also called recombinant rat C5 protein
The assay is described as above. As for the experimental part:
as §1

A further assay addresses T4, cynomolgus monkey C5 (cynomolgus monkey).
T4 construct: also called cyno C5; cyno monkey C5
The assay can be described thus: ELISA, recombinant C5 coated at 3 µg/ml, serially diluted antibody, HRP anti-IgG4 Fc detection. The procedure:
as §1

T1 sequence (P06684 19-1680 limits assumed): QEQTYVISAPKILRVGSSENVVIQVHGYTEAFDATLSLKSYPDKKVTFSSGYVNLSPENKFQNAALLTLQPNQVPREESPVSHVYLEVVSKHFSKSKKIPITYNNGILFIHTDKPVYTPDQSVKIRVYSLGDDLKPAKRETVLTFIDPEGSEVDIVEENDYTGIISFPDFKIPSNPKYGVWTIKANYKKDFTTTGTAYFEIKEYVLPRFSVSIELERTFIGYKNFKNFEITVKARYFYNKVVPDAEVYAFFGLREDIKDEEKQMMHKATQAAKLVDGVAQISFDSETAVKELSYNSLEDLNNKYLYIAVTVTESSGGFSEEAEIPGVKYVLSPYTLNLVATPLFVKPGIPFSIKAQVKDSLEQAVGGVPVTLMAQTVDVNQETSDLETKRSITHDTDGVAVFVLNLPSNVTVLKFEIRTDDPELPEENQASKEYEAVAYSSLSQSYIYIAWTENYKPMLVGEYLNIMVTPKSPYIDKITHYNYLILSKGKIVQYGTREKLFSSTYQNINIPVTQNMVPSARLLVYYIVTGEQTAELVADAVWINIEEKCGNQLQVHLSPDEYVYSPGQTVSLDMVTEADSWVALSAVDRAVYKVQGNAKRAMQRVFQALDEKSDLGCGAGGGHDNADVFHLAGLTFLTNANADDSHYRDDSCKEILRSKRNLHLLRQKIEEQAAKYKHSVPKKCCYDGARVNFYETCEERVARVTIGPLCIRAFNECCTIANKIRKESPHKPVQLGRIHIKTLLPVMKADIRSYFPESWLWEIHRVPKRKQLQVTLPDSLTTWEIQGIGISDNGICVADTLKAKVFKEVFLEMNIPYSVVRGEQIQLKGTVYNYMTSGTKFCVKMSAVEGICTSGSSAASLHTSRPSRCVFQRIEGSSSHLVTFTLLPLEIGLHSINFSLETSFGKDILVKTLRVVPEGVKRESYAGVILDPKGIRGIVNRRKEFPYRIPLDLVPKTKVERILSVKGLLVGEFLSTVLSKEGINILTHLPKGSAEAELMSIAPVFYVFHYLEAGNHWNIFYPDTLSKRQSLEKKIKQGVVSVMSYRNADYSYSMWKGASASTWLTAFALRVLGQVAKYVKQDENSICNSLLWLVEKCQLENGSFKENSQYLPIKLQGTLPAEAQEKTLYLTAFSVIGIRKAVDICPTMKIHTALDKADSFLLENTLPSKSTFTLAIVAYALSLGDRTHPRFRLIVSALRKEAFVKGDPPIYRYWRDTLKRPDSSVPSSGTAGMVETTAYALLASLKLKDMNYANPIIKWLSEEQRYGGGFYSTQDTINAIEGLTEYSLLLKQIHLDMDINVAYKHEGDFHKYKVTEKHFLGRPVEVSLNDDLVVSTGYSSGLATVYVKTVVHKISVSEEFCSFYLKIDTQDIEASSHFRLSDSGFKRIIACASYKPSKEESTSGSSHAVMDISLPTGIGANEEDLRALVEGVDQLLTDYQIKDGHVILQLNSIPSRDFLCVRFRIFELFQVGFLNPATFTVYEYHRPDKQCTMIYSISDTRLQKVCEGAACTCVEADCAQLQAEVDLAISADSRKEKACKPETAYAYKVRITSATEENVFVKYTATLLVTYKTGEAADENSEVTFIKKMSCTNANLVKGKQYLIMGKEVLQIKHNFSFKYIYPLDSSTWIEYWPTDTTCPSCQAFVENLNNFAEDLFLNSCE
T2 sequence (beta, as listed by the source limits assumed, chain 1 of 2): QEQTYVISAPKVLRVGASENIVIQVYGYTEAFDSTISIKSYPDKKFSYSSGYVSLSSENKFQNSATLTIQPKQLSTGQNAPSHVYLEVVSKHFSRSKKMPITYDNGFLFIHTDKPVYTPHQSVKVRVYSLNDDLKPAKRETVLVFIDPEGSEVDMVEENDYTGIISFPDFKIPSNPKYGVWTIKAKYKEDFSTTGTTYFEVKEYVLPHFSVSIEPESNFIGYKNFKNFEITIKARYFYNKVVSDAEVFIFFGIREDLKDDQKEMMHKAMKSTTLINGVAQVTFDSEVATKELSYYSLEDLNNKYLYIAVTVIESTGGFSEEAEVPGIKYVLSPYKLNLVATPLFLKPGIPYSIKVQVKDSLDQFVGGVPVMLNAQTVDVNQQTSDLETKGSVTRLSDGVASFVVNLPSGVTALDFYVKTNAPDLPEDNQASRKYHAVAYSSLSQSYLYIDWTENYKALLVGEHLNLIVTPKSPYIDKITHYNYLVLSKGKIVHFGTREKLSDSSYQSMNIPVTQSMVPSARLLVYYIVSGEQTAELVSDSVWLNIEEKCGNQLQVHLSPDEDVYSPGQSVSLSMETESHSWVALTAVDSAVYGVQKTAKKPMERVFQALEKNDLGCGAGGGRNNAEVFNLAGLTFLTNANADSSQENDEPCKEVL
T2 sequence (alpha, as listed by the source limits assumed, chain 2 of 2): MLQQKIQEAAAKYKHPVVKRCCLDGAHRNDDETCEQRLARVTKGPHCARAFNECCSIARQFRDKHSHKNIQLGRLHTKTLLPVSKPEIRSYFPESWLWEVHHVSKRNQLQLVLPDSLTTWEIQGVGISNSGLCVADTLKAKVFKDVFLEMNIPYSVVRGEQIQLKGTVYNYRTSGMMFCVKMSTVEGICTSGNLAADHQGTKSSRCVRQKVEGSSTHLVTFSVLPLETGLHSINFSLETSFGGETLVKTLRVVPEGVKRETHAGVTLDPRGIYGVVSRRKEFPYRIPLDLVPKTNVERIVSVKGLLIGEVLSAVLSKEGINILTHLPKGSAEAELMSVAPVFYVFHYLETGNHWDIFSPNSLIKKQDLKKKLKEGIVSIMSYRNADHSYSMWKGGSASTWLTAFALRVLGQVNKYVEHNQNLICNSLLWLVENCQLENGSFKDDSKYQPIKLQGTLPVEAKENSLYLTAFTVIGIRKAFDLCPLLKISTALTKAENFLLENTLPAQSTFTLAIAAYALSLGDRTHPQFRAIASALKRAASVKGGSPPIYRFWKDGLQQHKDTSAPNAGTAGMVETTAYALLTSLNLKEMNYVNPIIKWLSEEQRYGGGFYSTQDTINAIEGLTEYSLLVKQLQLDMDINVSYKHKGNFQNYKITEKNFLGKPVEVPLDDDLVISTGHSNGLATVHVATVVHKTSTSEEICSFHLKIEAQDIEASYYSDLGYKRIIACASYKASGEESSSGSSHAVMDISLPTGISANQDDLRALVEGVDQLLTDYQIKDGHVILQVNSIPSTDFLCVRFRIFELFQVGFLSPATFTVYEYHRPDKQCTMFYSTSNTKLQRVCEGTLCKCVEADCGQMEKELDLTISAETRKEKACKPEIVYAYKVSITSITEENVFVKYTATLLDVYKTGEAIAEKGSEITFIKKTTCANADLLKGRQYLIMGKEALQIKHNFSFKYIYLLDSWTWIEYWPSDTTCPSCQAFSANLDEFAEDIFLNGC
T3 sequence (P08650 19-1681 limits assumed): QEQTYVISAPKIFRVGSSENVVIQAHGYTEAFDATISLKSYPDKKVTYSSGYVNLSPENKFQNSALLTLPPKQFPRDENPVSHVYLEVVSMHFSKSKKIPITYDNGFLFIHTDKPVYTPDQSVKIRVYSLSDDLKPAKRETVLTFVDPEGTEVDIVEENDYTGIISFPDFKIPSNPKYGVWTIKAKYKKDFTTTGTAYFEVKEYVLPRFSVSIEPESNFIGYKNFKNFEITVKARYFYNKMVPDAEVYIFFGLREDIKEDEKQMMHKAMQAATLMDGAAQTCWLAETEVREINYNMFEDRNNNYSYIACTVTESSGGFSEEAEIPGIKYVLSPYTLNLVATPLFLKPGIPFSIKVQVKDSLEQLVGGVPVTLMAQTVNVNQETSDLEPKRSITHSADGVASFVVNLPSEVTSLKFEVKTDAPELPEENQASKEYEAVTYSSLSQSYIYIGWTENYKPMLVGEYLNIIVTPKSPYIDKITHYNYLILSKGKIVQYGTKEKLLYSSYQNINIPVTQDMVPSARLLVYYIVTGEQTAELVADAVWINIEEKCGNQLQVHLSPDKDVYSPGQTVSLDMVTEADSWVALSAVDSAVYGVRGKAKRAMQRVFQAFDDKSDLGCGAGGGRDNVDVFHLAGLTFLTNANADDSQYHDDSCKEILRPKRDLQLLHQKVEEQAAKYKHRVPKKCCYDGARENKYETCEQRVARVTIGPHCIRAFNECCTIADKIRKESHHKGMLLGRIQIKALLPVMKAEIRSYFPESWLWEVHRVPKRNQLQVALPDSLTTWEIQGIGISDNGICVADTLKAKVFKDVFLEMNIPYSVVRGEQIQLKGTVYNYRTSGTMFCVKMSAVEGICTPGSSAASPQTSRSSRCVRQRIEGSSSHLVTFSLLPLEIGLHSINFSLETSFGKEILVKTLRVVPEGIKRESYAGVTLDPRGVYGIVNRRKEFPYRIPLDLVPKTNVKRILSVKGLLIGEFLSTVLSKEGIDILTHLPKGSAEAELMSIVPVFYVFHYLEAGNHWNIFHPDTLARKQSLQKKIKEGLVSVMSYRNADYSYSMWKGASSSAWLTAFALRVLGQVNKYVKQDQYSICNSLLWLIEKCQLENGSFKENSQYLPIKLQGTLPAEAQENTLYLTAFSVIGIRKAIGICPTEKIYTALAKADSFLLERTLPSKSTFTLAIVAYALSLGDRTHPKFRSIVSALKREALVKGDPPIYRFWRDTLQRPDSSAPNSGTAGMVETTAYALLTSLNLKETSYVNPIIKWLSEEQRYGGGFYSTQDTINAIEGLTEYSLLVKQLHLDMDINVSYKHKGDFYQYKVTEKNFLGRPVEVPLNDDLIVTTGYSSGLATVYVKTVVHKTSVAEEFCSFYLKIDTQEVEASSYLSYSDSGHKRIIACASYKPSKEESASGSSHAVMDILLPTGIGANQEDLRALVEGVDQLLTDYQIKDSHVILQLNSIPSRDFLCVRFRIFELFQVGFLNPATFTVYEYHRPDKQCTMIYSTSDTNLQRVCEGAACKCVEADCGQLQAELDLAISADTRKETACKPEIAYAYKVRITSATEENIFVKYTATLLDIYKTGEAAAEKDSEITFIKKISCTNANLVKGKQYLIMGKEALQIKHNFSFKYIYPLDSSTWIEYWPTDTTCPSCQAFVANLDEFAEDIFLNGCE

B1: Y32H/Q38R/L54H anti-C5 mAb (antibody, human IgG4 S228P, V domains shown)
VH: QVQLVQSGAEVKKPGASVKVSCKASGYIFSNHWIQWVRQAPGQGLEWMGEILPGSGSTEYTENFKDRVTMTRDTSTSTVYMELSSLRSEDTAVYYCARYFFGSSPNWYFDVWGQGTLVTVSS
VL: DIQMTQSPSSLSASVGDRVTITCGASENIYGALNWYQRKPGKAPKLLIYGATNHADGVPSRFSGSGSGTDFTLTISSLQPEDFATYYCQNVLNTPLTFGQGTKVEIK
Broadly, the EC50 is the midpoint of the concentration-response curve. As to B1, the binding result with mouse C5, with rabbit C5 and in the assay with rat C5 was “no binding” in each case. Further, in the assay with cynomolgus monkey C5, the EC50 was around 0.2 µg/mL.
